Test results taken from paper PMC9352689 (Nature Communications, 2022).
Changes are numbered by the printed parent chain.

B1: COVA1-07 (antibody, V domains shown)
VH: QVQLVESGAEVKKPGSSVKVSCKASGGTLSSYAITWVRQAPGQGLEWVGGIIPIFGTANYAQKFQGRVTITADESTSTAYMELSSLRSEDTAVYYCARVGAYDSSGYSNDYWGQGTLVTVSS
VL: DIQLTQSPATLSLSPGERATLSCRASQSVSSYLAWYQQKPGQAPRLLIYDASNRATGIPARFSGSGSGTDFTLTISSLEPEDFAVYYCQQRSNWPPRVTFGGGTKVEIK
notes: copies: 2 + 2
B2: COVA2-18 (antibody, V domains shown)
VH: EVQLVQSGAEVKKPGSSVKVSCKASGGTFSSYAISWVRQAPGQGLEWMGGIIPIFGTTNYAQKFQGRVTITTDESTSTAYMELSSLRSEDTAVYYCARVYSYDSSGYYLEYWGQGTRVTVSS
VL: B1 VL with D1E, Q3V, R97S, V98I, G102Q, K105R, V106L
notes: copies: 2 + 2
B3: COVA2-14 (antibody, V domains shown)
VH: B2 VH with E1Q, S35I, T58A, Y100R, S101Y, L109E, E110D, R117L
VL: B1 VL with D1E, Q3V, K39E, R97M, V98Y, G102Q
notes: copies: 2 + 2

Biological target: T1, SARS-CoV-2 S, full-length wild type, expressed on the cell surface (SARS-CoV-2, labelled B.1 in Fig. S6A, UniProt P0DTC2)
T1 construct: source: HEK293T, transfected, on the cell surface
Experiment: flow cytometry on cells
Details: one partner purified

| Binder | binding result |
| --- | --- |
| B1 | binds |
| B2 | binds |
| B3 | binds |

Biological target: HCoV-229E S, full-length, on the cell surface (HCoV-229E, strain , UniProt P15423)
Experiment: flow cytometry on cells
Details: one partner purified

| Binder | binding result |
| --- | --- |
| B1 | no binding (tested: 50 μg/mL) |
| B2 | no binding (tested: 50 μg/mL) |
| B3 | no binding (tested: 50 μg/mL) |

Biological target: SARS-CoV S, full-length, on the cell surface (SARS-CoV, strain , UniProt P59594)
Experiment: flow cytometry on cells
Details: one partner purified

| Binder | binding result |
| --- | --- |
| B1 | binds |
| B2 | binds |
| B3 | binds |

Biological target: HCoV-HKU1 S, full-length, on the cell surface (HCoV-HKU1, isolate  (entry: …, UniProt Q5MQD0))
Experiment: flow cytometry on cells
Details: one partner purified

| Binder | binding result |
| --- | --- |
| B1 | no binding (tested: 50 μg/mL) |
| B2 | no binding (tested: 50 μg/mL) |
| B3 | no binding (tested: 50 μg/mL) |

Biological target: HCoV-OC43 S, full-length, on the cell surface (HCoV-OC43, strain , UniProt P36334)
Experiment: flow cytometry on cells
Details: one partner purified

| Binder | binding result |
| --- | --- |
| B1 | no binding (tested: 50 μg/mL) |
| B2 | no binding (tested: 50 μg/mL) |
| B3 | no binding (tested: 50 μg/mL) |

Biological target: bat CoV SHC014 S, full-length, on the cell surface (Bat SARS-like coronavirus RsSHC014, UniProt U5WLK5)
Experiment: flow cytometry on cells
Details: one partner purified

| Binder | binding result |
| --- | --- |
| B1 | binds |
| B2 | binds |
| B3 | binds |

Biological target: MERS-CoV S, full-length, on the cell surface (MERS-CoV, strain , UniProt K9N5Q8)
Experiment: flow cytometry on cells
Details: one partner purified

| Binder | binding result |
| --- | --- |
| B1 | no binding (tested: 50 μg/mL) |
| B2 | no binding (tested: 50 μg/mL) |
| B3 | no binding (tested: 50 μg/mL) |

Biological target: HCoV-NL63 S, full-length, on the cell surface (HCoV-NL63, strain , UniProt Q6Q1S2)
Experiment: flow cytometry on cells
Details: one partner purified

| Binder | binding result |
| --- | --- |
| B1 | no binding (tested: 50 μg/mL) |
| B2 | no binding (tested: 50 μg/mL) |
| B3 | no binding (tested: 50 μg/mL) |

Biological target: SARS-CoV-2 soluble S2, his-tagged (SARS-CoV-2, ancestral (Wuhan-Hu-1), UniProt P0DTC2)
Experiment: ELISA; COVA MAbs on SARS-CoV-2 S and on soluble S2 (Fig. S5A); format not told
Details: both partners purified

| Binder | binding result |
| --- | --- |
| B1 | binds |
| B2 | binds |
| B3 | binds |
